In article PMC7938805, “Biophysical and biochemical properties of Deup1 self-assemblies: a potential driver for deuterosome formation during multiciliogenesis” (Biology Open, 2021):

B1: mScarlet I-Deup1 N-terminus fragment (1-466 a.a.) (domain or fragment, mouse, UniProt Q7M6Y5-1 1-466, looked up)
chain: MENQAHTTAGASPCEAELQELMEQIDIMVSNKKLDWERKMRALETRLDLRDQELANAQTCLDQKGQEVGLLRQKLDSLEKCNLVMTQNYEGQLQTLKAQFSKLTSNFEKLRLHQMKQNQIHRKESSSKEELPFELSSLNQKLEEFRAKSREWDKQEVLYQTHLVSLDAQQKLLSEKCSQFQKQAQNYQTQLNGKKQCAEDSSSEIPRLVCESDPGCEATQRDEFIIEKLKSAVSEIALSRNKLQDENQKLLQELKMYQRQCQAMEAGLSEVKSELQSRDDLLRIIEMERLHLHRELLRMGEVQTAQDNRKRVESSYSPSPKEAERKRKELFPMVSDQPNHEKELSKMRSQLYQEEGLCSEQERLRSEISELTQELHQKEVTIATVMKKAALLERQLKIELEIKERMLAKQQVSDRRYKAVRTENTHLKGMMGDLDPARYLAVDLSNKKHSQCTSINKLEYENERLR
notes: Deuterosome protein 1 (Deup1), mouse, longer isoform NP_001360846, residues 1-466, with multiple coiled coil domains; source: E. coli BL21 gold (DE3), purified (Ni-NTA, glutathione sepharose, eluted with PreScission and TEV protease); not shown: GST, N-terminal, cleaved; mScarlet I, N-terminal, kept; His6, C-terminal, cleaved
B2: mScarlet I-Deup1 (deuterosome protein 1, mouse, longer isoform) (natural protein, UniProt Q7M6Y5-1 1-601, looked up)
chain: MENQAHTTAGASPCEAELQELMEQIDIMVSNKKLDWERKMRALETRLDLRDQELANAQTCLDQKGQEVGLLRQKLDSLEKCNLVMTQNYEGQLQTLKAQFSKLTSNFEKLRLHQMKQNQIHRKESSSKEELPFELSSLNQKLEEFRAKSREWDKQEVLYQTHLVSLDAQQKLLSEKCSQFQKQAQNYQTQLNGKKQCAEDSSSEIPRLVCESDPGCEATQRDEFIIEKLKSAVSEIALSRNKLQDENQKLLQELKMYQRQCQAMEAGLSEVKSELQSRDDLLRIIEMERLHLHRELLRMGEVQTAQDNRKRVESSYSPSPKEAERKRKELFPMVSDQPNHEKELSKMRSQLYQEEGLCSEQERLRSEISELTQELHQKEVTIATVMKKAALLERQLKIELEIKERMLAKQQVSDRRYKAVRTENTHLKGMMGDLDPARYLAVDLSNKKHSQCTSINKLEYENERLRSDLAKLHGNGKAAWPNQSSYGEAGAYVFQSQLKTETSGDRISQDCELNRSPTPLSPLPFQTKEMASPLVGDNEVLALSPPDISFRASLAAQHFLMEEERRAKELEKLLNTHIDELQRHTEFTLNKYTKLKQSRHI
notes: Deuterosome protein 1 (Deup1), mouse, longer isoform NP_001360846, cloned from a mouse lung cDNA library with primers from the start to the stop codon; 601 residues by the fragment limits; Expressed from pGEX 6p-1 modified with a C-terminal 6xHis tag and a TEV site; also called mS-Deup1; full-length Deup1; source: E. coli BL21 gold (DE3), purified (Ni-NTA, glutathione sepharose, eluted with …)

Molecular target: the molecule itself
Test: fluorescence microscopy of assemblies of purified protein; purified fluorescent protein (100 nM where stated) in 50 mM Tris pH 7.5, 150 mM NaCl, 1.5% glycerol with PEG8000 (up to 6%) or BSA 300 mg/ml as crowding agent, RT 10 min, confocal imaging

Row | Protein | binding result
1 | B1 | binds
2 | B2 | binds
